Reference: US20230270828A1, “COMPOSITION FOR USE IN THE TREATMENT OF VIRAL INFECTIONS” (BICT S.R.L., priority 2020, published 2023)
Like-named read-outs stand apart in the source and are kept apart here. Marks after values point to notes of the source that are not given here.

What was measured:
[1] = tested on: SARS-CoV-2; assay type: cell-based
[2] = tested on: Vero cells (Monkey Kidney Epithelial Cells); conditions: Vero cells

B1: lactoferrin (protein, UniProt P24627 20-708, looked up)
Lactotransferrin: APRKNVRWCTISQPEWFKCRRWQWRMKKLGAPSITCVRRAFALECIRAIAEKKADAVTLDGGMVFEAGRDPYKLRPVAAEIYGTKESPQTHYYAVAVVKKGSNFQLDQLQGRKSCHTGLGRSAGWIIPMGILRPYLSWTESLEPLQGAVAKFFSASCVPCIDRQAYPNLCQLCKGEGENQCACSSREPYFGYSGAFKCLQDGAGDVAFVKETTVFENLPEKADRDQYELLCLNNSRAPVDAFKECHLAQVPSHAVVARSVDGKEDLIWKLLSKAQEKFGKNKSRSFQLFGSPPGQRDLLFKDSALGFLRIPSKVDSALYLGSRYLTTLKNLRETAEEVKARYTRVVWCAVGPEEQKKCQQWSQQSGQNVTCATASTTDDCIVLVLKGEADALNLDGGYIYTAGKCGLVPVLAENRKSSKHSSLDCVLRPTEGYLAVAVVKKANEGLTWNSLKDKKSCHTAVDRTAGWNIPMGLIVNQTGSCAFDEFFSQSCAPGADPKSRLCALCAGDDQGLDKCVPNSKEKYYGYTGAFRCLAEDVGDVAFVKNDTVWENTNGESTADWAKNLNREDFRLLCLDGTRKPVTEAQSCHLAVAPNHAVVSRSDRAAHVKQVLLHQQALFGKNGKNCPDKFCLFKSETKNLLFNDNTECLAKLGGRPTYEEYLGTEYVTAIANLKKCSTSPLLEACAFLTR
notes: multifunctional globular protein of the transferrin family, 80 KDa
Mean ΔCt ([1]; 0.59 mg/ml, scheme A (preincubation of virus with compound)): 0.23
Mean ΔCt ([1]; 0.59 mg/ml, scheme B+C (during and after inoculum)): 0.04
Mean ΔCt ([1]; 0.59 mg/ml, scheme B+C+D (during, after inoculum and repeated)): −0.25
Mean ΔCt ([1]; 1.17 mg/ml, scheme A (preincubation of virus with compound)): 0.76
Mean ΔCt ([1]; 1.17 mg/ml, scheme B+C (during and after inoculum)): −0.08
Mean ΔCt ([1]; 1.17 mg/ml, scheme B+C+D (during, after inoculum and repeated)): −0.21
Mean ΔCt ([1]; 2.34 mg/ml, scheme A (preincubation of virus with compound)): 0.42
Mean ΔCt ([1]; 2.34 mg/ml, scheme B+C (during and after inoculum)): −0.28
Mean ΔCt ([1]; 2.34 mg/ml, scheme B+C+D (during, after inoculum and repeated)): −0.47
Mean ΔCt ([1]; 4.68 mg/ml, scheme A (preincubation of virus with compound)): 0.25
Mean ΔCt ([1]; 4.68 mg/ml, scheme B+C (during and after inoculum)): −1.52
Mean ΔCt ([1]; 4.68 mg/ml, scheme B+C+D (during, after inoculum and repeated)): −2.47
CC10 ([2]; 72 h, MTT): >4.68§ mg/ml
CC50 ([2]; 72 h, MTT): >4.68§ mg/ml
maximum nontoxic concentration (assumed) ([2]; based on CC50/CC10 data): 4.68 mg/mL
